± gives the uncertainty stated by the source.
Assay: self-splicing fitness, log relative to wild type (ln ratio); higher = more splicing; Tetrahymena group I intron in knt gene, E. coli kanamycin selection, DiMSum; sequences stand for … in CUCUCU…GGAGGGAAAAGUUAUCAGGCAUGCACCUGGUAGCUAGUCUUUAAACCAAUAGAUUGCAUCGGUUUAAAAGGCAAGACCGUCAAAUUGCGGGAAAGGGGUCAACAGCCGUUCAGUACCAAGUCUCAGGGGAAACUUUGAGAUGGCCUUGCAAAGGGUAUGGUAAUAAGCUGACGGACAUGGUCCUAACCACGCAGCCAAGUCCUAAGUCAACAGAUCUUCUGUUGAUAUGGAUGCAGUUCACAGACUAAAUGUCGGUCGGGGAAGAUGUAUUCUUCUCAUAAGAUAUAGUCGGACCUCUCCUUAAUGGGAGCUAGCGGAUGAAGUGAUGCAACACUGGAGCCGCUGGGAACUAAUUUGUAUGCGAAAGUAUAUUGAUUAGUUUUGGAGUACUCGUGGUCG
How it was run: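 Colonies from six replicate transformations of E. coli BL21(DE3) were pooled and amplicon-sequenced on an Illumina HiSeq 2500. The library placed an intron with all eight P1ex-region nucleotides randomised inside the knt kanamycin-resistance gene on pET-22b(+), and cells grew overnight at 37°C or 30°C on LB agar with or without 25 μg/mL kanamycin (plus 100 μg/mL carbenicillin, 50 μM IPTG, 0.2% rhamnose). Fitness is the DiMSum error-weighted combination of wild-type-normalised replicate fold changes, kanamycin versus none.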

Sequence | self-splicing fitness (ln) (30 °C) | self-splicing fitness (ln) (37 °C)
CGUGAGCAAUAUUACGCAUG | -0.06 ± 0.18 | -1.13 ± 0.27
AGGUAGCAAUAUUACGAUAG | -3.728 ± 0.035 | -2.72 ± 0.045
GUCGAGCAAUAUUACGGUAG | -2.02 ± 0.11 | -2.54 ± 0.25
CUGUAGCAAUAUUACGGCCC |  | -0.731 ± 0.38
UGUUAGCAAUAUUACGUUGU | -3.71 ± 0.28 | -2.3 ± 0.17
CUAUAGCAAUAUUACGAACG | 0.0017 ± 0.29 | -0.388 ± 0.33
UGACAGCAAUAUUACGCGAA | -1.32 ± 0.12 | -0.476 ± 0.14
UCCCAGCAAUAUUACGCUAA | -1.75 ± 0.11 | -0.958 ± 0.091
CAUUAGCAAUAUUACGGUUC | -3.48 ± 0.21 | -2.55 ± 0.23
ACUUAGCAAUAUUACGUGAC | -2.05 ± 0.21 | -2.54 ± 0.29
UAGCAGCAAUAUUACGGCAU | -1.29 ± 0.081 | -0.191 ± 0.089
AGGCAGCAAUAUUACGUCCA | -0.459 ± 0.051 | 0.0124 ± 0.078
AAAGAGCAAUAUUACGAUCG | -2.55 ± 0.12 | -1.29 ± 0.15
GGUUAGCAAUAUUACGUGGU | -2.69 ± 0.18 | -0.78 ± 0.17
CAGAAGCAAUAUUACGGAUU | -3.13 ± 0.12 | -2.47 ± 0.14
GUACAGCAAUAUUACGUCUA | -1.11 ± 0.091 | -0.268 ± 0.081
GUUUAGCAAUAUUACGGGAG | -1.44 ± 0.18 | -1.83 ± 0.2
AUGUAGCAAUAUUACGACCU | -0.739 ± 0.28 | -0.136 ± 0.34
GUCAAGCAAUAUUACGAGUA | -3.43 ± 0.19 | -1.98 ± 0.15
CAUCAGCAAUAUUACGAACC | -2.59 ± 0.24 | -0.525 ± 0.46

Sequence | self-splicing fitness (ln) (30 °C) | self-splicing fitness (ln) (37 °C)
AGCAAGCAAUAUUACGGCCC | 0.104 ± 0.19 | -0.363 ± 0.28
UUCUAGCAAUAUUACGUCGC | -3.18 ± 0.44 | 
UGCAAGCAAUAUUACGACUU | -2.34 ± 0.1 | -0.599 ± 0.11
GAGAAGCAAUAUUACGAGCU | -0.838 ± 0.12 | -0.347 ± 0.11
ACGGAGCAAUAUUACGAUAU | -2.48 ± 0.21 | -2.12 ± 0.23
UGAAAGCAAUAUUACGGCCU | -0.0439 ± 0.16 | 0.493 ± 0.18
GCCGAGCAAUAUUACGUGAG | -1.23 ± 0.09 | -0.333 ± 0.12
AAUUAGCAAUAUUACGCAGC | -3.15 ± 0.48 | -2.21 ± 0.27
UCUGAGCAAUAUUACGCUUA | -2.24 ± 0.26 | -2.38 ± 0.45
GGCUAGCAAUAUUACGAAGU | -2.13 ± 0.26 | -1.56 ± 0.44
UAACAGCAAUAUUACGCCCC | -1.03 ± 0.28 | -0.834 ± 0.47
AAUUAGCAAUAUUACGAAGC | -1.94 ± 0.27 | 
UGUUAGCAAUAUUACGCAGA | -0.741 ± 0.46 | -0.752 ± 0.3
CGUCAGCAAUAUUACGACUG | -0.935 ± 0.11 | 0.699 ± 0.13
AUACAGCAAUAUUACGAGGU | -3.04 ± 0.11 | -1.84 ± 0.11
AAAGAGCAAUAUUACGCCGU | -3.07 ± 0.48 | -1.74 ± 0.42
UGGGAGCAAUAUUACGUUUC | -3.05 ± 0.23 | -1.66 ± 0.4
CCUGAGCAAUAUUACGGGGC | -3.49 ± 0.28 | 
GGAUAGCAAUAUUACGAGGA | -3.28 ± 0.25 | -1.15 ± 0.17
